According to US10704064B2, “Recombinant yeast producing 3-hydroxypropionic acid and method for producing 3-hydroxypropionic acid using the same” (SK Innovation Co., Ltd., priority 2014, dated 2020):

B1: MCRcc: archaeal malonyl-CoA reductase of Candidatus Caldiarchaeum subterraneum, GenBank BAJ50751.1 (protein)
chain: MKTYSVAILGATGMVGQHYIRMLYRHPWFRITALTGKESVGRKYVEAVRGEAPEPPKEIAEMEVLPTDPKKVDADFVFSCLPTEAAREAEPKFAEAGFPVFSDAAAYRMEEDVPLIVPEINHDHLNMVHIQRKKRGWEGYIVTTPNCTTVGLVLPLQPLKQHLGVKKVIVTTMQAVSGAGYPGVASLSILGNVIPYISGEERKVETETAKILGRYGDGRFTHDSVEVHATCTRVPTLDGHMESIYLETAKPADEETVAELLAEYVSLPQELNLPTAPARPIVVRRELDRPQTRIDVDAGTVPGMSVSVGRIRVNGEKVRFISLSHNLIRGAAGGTILTAELARHMGLLGE
modifications: Candidatus Caldiarchaeum
B2: AADHbw: eutE type AADH of Bilophila wadsworthia 3_1_6, GenBank EFV45545.1 (protein)
chain: MDVRQQDVERIVVEVLKKMMSDQPTAAATTVVAASGCDCGDFGLFDRLEDAVQAAEAAQKKISTVAMRDKIIAAIRKAGLENAKAFAEIAHNETGMGRVSDKIAKNILVCERTPGTECLSPMAISGDMGLTLIENAPWGVIASVTPSTNPTATVINNAISMIAGGNSVIFAPHPNAKRASQTAIQVLNKAIIEATGVANLLVAVKEPTIEVAQELFSHPRIKLLVVTGGEAVVAQARKVATMRLIAAGAGNPPVVVDETANIARAARSIYDGASFDNNIICADEKEIIAVDSIADQLKAEMKAIGAVEISLEQADAVARVVLRNYPQVEGGKAPNPNPKWVGRDAALIAKAAGIDVPDSCRLLIVDVKRDINHVFARVEQLMPVIPLLRAANVDEAIEWALILERGLSHTAGMHSRNIDNMDKMARAMNTSLFVKNGPHLAALGAGGEGWTTMTISTPTGEGVTCARSFVRLRRCCVVDNFRIV
modifications: AADHbw
B3: AADHmm: eutE type AADH of Morganella morganii SC01, GenBank EMP53767.1 (protein)
chain: MDQKEIENVVKAVLASMSAGTQPAAASAAPQQAAASQNNGFGVFESLDDAVLAAKEAQKSLKTVEMRNLCIGAIRRAATEHARELAVLAVEETGMGRVEDKLAKNLAQANGTPGVECLRPEVLTGDHGLTLIENAAWGVIASVTPSTNPAATAINNAISMIAGGNSVIFAPHPAAKKVSQRTITILNEAIVAAGGPNNLLVTVAKPDIETAQRLFKYPGIGLLVVTGGDAVVESARKHTNKRLIAAGAGNPPVVVDETADIERAAKAIVHGASFDNNIICADEKVLIAVDCIADKLITEMQRNHAVLLTREQSEKLIPVLLKNVDETGHGTVSRDWVGRDAAKIAAAIGMTVPADTRLLIAETDCKHPFAVTELMMPVLPIIRVKDVDQAIDLAVKLEGGCHHTAAMHSNNISNLNRMANAIDTSIFVKNGPCIAGLGLGGEGWTTMTITTPTGEGVTCARTFVRLRRCTMVDSFRIV
modifications: AADHmm
B4: EUTEec: eutE type AADH of Escherichia coli HS, GenBank YP_001459232.1 (protein)
chain: MNQQDIEQVVKAVLLKMQSSDTPPAAVHEMGVFASLDDAVAAAKVAQQGLKSVAMRQLAIAAIREAGEKHARDLAELAVSETGMGRVEDKFAKNVAQARGTPGVECLSPQVLTGDNGLTLIENAPWGVVASVTPSTNPAATLINNAISLIAAGNSVIFAPHPAAKKVSQRAITLLNQAIVAAGGPENLLVTVANPDIETAQRLFKFPGIGLLVVTGGEAVVEAARKHTNKRLIAAGAGNPPVVVDETADLARAAQSIVKGASFDNNIICADEKVLIVVDSVADELMRLMEGQHAVKLTAEQAQQLQPVLLKNIDERGKGTVSRDWVGRDAAKIAAAIGLNVPQETRLLFVETTAEHPFAVTELMMPVLPVVRVANVADAIALAVKLEGGCHHTAAMHSRNIENMNQMANAIDTSIFVKNGPCIAGLGLGGEGWTTMTITTPTGEGVTSARTFVRLRRCVLVDAFRIV
modifications: EUTEec
B5: AADHvs: eutE type AADH of Vibrio sp. EJY3, GenBank AEX22176.1 (protein)
chain: MNEQEIAHAVENVLSKYTNVTAQNAEPVSYSSNASLENIVSQALAGNMVKQPETQTAPDLNSNIENIVSQILAENQAKPQSVQCQSANHGTTEYLGCFASMEEAISAASHAQVQYRHCTMGDRASFVKGIREVFTQDDVLEKISRMAVEETGMGNYADKLTKNRIAATKTPGIEDLTTSALSGDSGLTLTEFSAYGVIGSITPTTNPTETIINNSIGMLAAGNTVVYSPHPRSRNVSLVAVDLINRKLAELGAPANLVVTVLEPSIDNTNAMMNDPRVNMLVATGGPSIVKTVMSTGKKAIGAGAGNPPAVVDETANIEKAAKDIINGCAFDNNLPCIAEKEVIVVNEVADYLIHCMKKSGAYLLCDKQKIQQLQSLVLNEKGTGPNTSFVGKGARYILDKLNIQVSDDIKVILIETERNHPFVVHELMMPILPVVRVENVDEAIDLAIKVEHGNRHTAIMHSTNVEKLSKMARLIQTTIFVKNGPSYSGIGVGGEGHTTFTIAGPTGEGITSARSFARYRRCVMVEALNIR
modifications: AADHvs
B6: ADHEpm: adhE type AADH of Piromyces sp. E2, GenBank AY282576.1 (protein)
chain: MSGLQMFQNLSLYGSLAEIDTSEKLNEAMDKLTAAQEQFREYNQEQVDKIFKAVALAASQNRVAFAKYAHEETQKGVFEDKVIKNEFAADYIYHKYCNDKTAGIIEYDEANGLMEIAEPVGPVVGIAPVTNPTSTIIYKSLIALKTRNCIIFSPHPGAHKASVFVVKVLHQAAVKAGAPENCIQIIFPKMDLTTELLHHQKTRFIWATGGPGLVHASYTSGKPALGGGPGNAPALIDETCDMNEAVGSIVVSKTFDCGMICATENAVVVVESVYENFVATMKKRGAYFMTPEETKKASNLLFGEGMRLNAKAVGQTAKTLAEMAGFEVPENTVVLCGEASEVKFEEPMAHEKLTTILGIYKAKDFDDGVRLCKELVTFGGKGHTAVLYTNQNNKDRIEKYQNEVPAFHILVDMPSSLGCIGDMYNFRLAPALTITCGTMGGGSSSDNIGPKHLLNIKRVGMRRENMLWFKIPKSVYFKRAILSEALSDLRDTHKRAIIITDRTMTMLGQTDKIIKACEGHGMVCTVYDKVVPDPTIKCIMEGVNEMNVFKPDLAIALGGGSAMDAAKMMRLFYEYPDQDLQDIATRFVDIRKRVVGCPKLGRLIKTLVCIPTTSGTGAEVTPFAVVTSEEGRKYPLVDYELTPDMAIVDPEFAVGMPKRLTSWTGIDALTHAIESYVSIMATDFTRPYSLRAVGLIFESLSLAYNNGKDIEAREKMHNASAIAGMAFANAFLGCCHSVAHQLGSVYHIPHGLANALMLSHIIKYNATDSPVKMGTFPQYKYPQAMRHYAEIAELLLPPTQVVKMTDVDKVQYLIDRVEQLKADVGIPKSIKETGMVTEEDFFNKVDQVAIMAFDDQCTGANPRYPLVSELKQLMIDAWNGVVPKL
modifications: ADHEpm

How the values were obtained:
[1] = SDS-PAGE expression levels of MCR constructs in E. coli lysate
Description: (§1) pBAT T7 promoter based expression constructs were made for four different archaeal MCRs, Metallosphaera sedula (MCRms), Sulfolobus tokodai (MCRst), Candidatus caldiarchaeum (MCRcc), and Sulfolobales archaeon (MCRsa1).

MCR = assay: archaeal MCR activity assay in E. coli lysates (microtitre plate); assay type: biochemical; details: E. coli cell lysate, NADPH or NADH
Experimental: as §1
Their activity was analyzed using the following assay conditions: 0.4 mM NAD(P)H; 0.15 mM Malonyl-CoA; Tris-HCl pH 7; 2 mM MgCl2. Assays on 20 times diluted lysates were performed in microtitre plate (MTP) format at RT. The oxidation of NADPHT or NADHT at A^365 in time was followed. […] However, the MCR activities were smaller than that measured for the tagged MCRca.

[2] = tested on: S. cerevisiae VSK-128 ACS2 deletion strain; assay: AADH in vivo growth assay, ACS2 deletion strain on glucose-based agar plates; assay type: cell-based
Description: All copies of the ACS2 gene were deleted from the industrial S. cerevisiae VSK-128 strain in order to generate a strain with a defective PDH-bypass that was incapable of growth on glucose-based medium. Expression vectors carrying the 25 different AADH variants were then transformed into this ACS2 deletion strain to evaluate their ability to recover the growth of this strain on glucose.
There was a good correlation between the in vitro AADH enzyme activity assays and the in vivo growth recovery analyses.

AADH = AADH in vitro enzyme activity assay from yeast cell lysates; assay type: biochemical; details: for AADH activity: in vitro, expressed in yeast
Experimental: AADH activity was measured as described by Kozak et al. (2014, Metab. Eng. 21:46-59) by monitoring the reduction of NAD^+ at 340 nm at 30° C. The yeast cells for the cell lysates were collected, washed with water, and then resuspended into lysis buffer containing 100 mM Tris-HCl buffer (pH 7.5) and 1×EDTA free protease inhibitor cocktail (Roche). The cells were lysed with glass beads in a Precellys 24 homogenizer at 5500 rpm for 3×40 seconds and kept on ice between rounds. Lysates were centrifuged at 16 000 g for 20 min at 4° C. and supernatants were collected. The total protein concentration was determined using the Bradford method.
The enzyme assay reaction mixture contained 0.1 mM Coenzyme A, 50 mM CHES buffer (pH 9.5), 0.8 mM NAD^+, 0.2 mM DTT and 10 μL of cell extract in a total reaction volume of 200 μL. The reaction was started by adding 10 mM of freshly prepared acetaldehyde solution and reduction of NAD^+ was followed with a Thermo Konelab 20XT analyser.
Five AADH genes were originally chosen (i.e. ADHEpm, ADHEec, EUTec, EUTdz and LIN1129li) and transformed into the CEN.PK lab strain. These AADHs were expressed from a multicopy plasmid where they were under control of the TEF1 promoter.
Twenty additional novel AADH genes were chosen from the genome mining analyses to be evaluated for expression and enzyme activity in yeast.

Molecule	expression level [1]	MCR activity (MCR)	recovery of the growth deficiency of the ACS2-deletion strain [2]	AADH activity (AADH)	AADH activity in yeast compared to the adhE-type AADHs (AADH; CEN.PK lab strain, multicopy plasmid, TEF1 promoter)
B1	could not be expressed in a soluble form	No activity on NADPH or NADH could be measured			
B2			capable of recovering the growth deficiency	shown to have AADH activity	
B3			capable of recovering the growth deficiency	shown to have AADH activity	
B4			capable of recovering the growth deficiency	showed AADH activity	much higher AADH activity
B5			capable of recovering the growth deficiency	shown to have AADH activity	
B6				showed AADH activity	
